Data reported in US20120114557A1.

What was measured:
Compound ID No 1014 [1] = molecular target: T1, Compound ID No 1014; test: competition in the dried collagen assay: 1.6 uM soluble competitor protein, 5 uM Comp ID No 1014, 5 uM insoluble type I rat collagen
T1 chain: KKWHCYTYFPHHYCVYG

Compound ID No 1014 [2] = molecular target: T1, Compound ID No 1014; test: competition in the dried collagen assay: 1.6 uM soluble competitor protein, 5 uM Comp ID No 1014, 5 uM insoluble type I human collagen

- % of Comp ID No 1014 bound to insoluble rat collagen in presence of the competitor (Compound ID No 1014 [1]): 28.1%
- % of Comp ID No 1014 bound to insoluble human collagen in presence of the competitor (Compound ID No 1014 [2]): 59.9%
B1: Type IV human collagen (soluble competitor protein), P02462 28-1669; P08572 26-1712 (protein)
chain 1: not shown
chain 2: FLAQSVLAGVKKFDVPCGGRDCSGGCQCYPEKGGRGQPGPVGPQGYNGPPGLQGFPGLQGRKGDKGERGAPGVTGPKGDVGARGVSGFPGADGIPGHPGQGGPRGRPGYDGCNGTQGDSGPQGPPGSEGFTGPPGPQGPKGQKGEPYALPKEERDRYRGEPGEPGLVGFQGPPGRPGHVGQMGPVGAPGRPGPPGPPGPKGQQGNRGLGFYGVKGEKGDVGQPGPNGIPSDTLHPIIAPTGVTFHPDQYKGEKGSEGEPGIRGISLKGEEGIMGFPGLRGYPGLSGEKGSPGQKGSRGLDGYQGPDGPRGPKGEAGDPGPPGLPAYSPHPSLAKGARGDPGFPGAQGEPGSQGEPGDPGLPGPPGLSIGDGDQRRGLPGEMGPKGFIGDPGIPALYGGPPGPDGKRGPPGPPGLPGPPGPDGFLFGLKGAKGRAGFPGLPGSPGARGPKGWKGDAGECRCTEGDEAIKGLPGLPGPKGFAGINGEPGRKGDRGDPGQHGLPGFPGLKGVPGNIGAPGPKGAKGDSRTITTKGERGQPGVPGVPGMKGDDGSPGRDGLDGFPGLPGPPGDGIKGPPGDPGYPGIPGTKGTPGEMGPPGLGLPGLKGQRGFPGDAGLPGPPGFLGPPGPAGTPGQIDCDTDVKRAVGGDRQEAIQPGCIGGPKGLPGLPGPPGPTGAKGLRGIPGFAGADGGPGPRGLPGDAGREGFPGPPGFIGPRGSKGAVGLPGPDGSPGPIGLPGPDGPPGERGLPGEVLGAQPGPRGDAGVPGQPGLKGLPGDRGPPGFRGSQGMPGMPGLKGQPGLPGPSGQPGLYGPPGLHGFPGAPGQEGPLGLPGIPGREGLPGDRGDPGDTGAPGPVGMKGLSGDRGDAGFTGEQGHPGSPGFKGIDGMPGTPGLKGDRGSPGMDGFQGMPGLKGRPGFPGSKGEAGFFGIPGLKGLAGEPGFKGSRGDPGPPGPPPVILPGMKDIKGEKGDEGPMGLKGYLGAKGIQGMPGIPGLSGIPGLPGRPGHIKGVKGDIGVPGIPGLPGFPGVAGPPGITGFPGFIGSRGDKGAPGRAGLYGEIGATGDFGDIGDTINLPGRPGLKGERGTTGIPGLKGFFGEKGTEGDIGFPGITGVTGVQGPPGLKGQTGFPGLTGPPGSQGELGRIGLPGGKGDDGWPGAPGLPGFPGLRGIRGLHGLPGTKGFPGSPGSDIHGDPGFPGPPGERGDPGEANTLPGPVGVPGQKGDQGAPGERGPPGSPGLQGFPGITPPSNISGAPGDKGAPGIFGLKGYRGPPGPPGSAALPGSKGDTGNPGAPGTPGTKGWAGDSGPQGRPGVFGLPGEKGPRGEQGFMGNTGPTGAVGDRGPKGPKGDPGFPGAPGTVGAPGIAGIPQKIAVQPGTVGPQGRRGPPGAPGEMGPQGPPGEPGFRGAPGKAGPQGRGGVSAVPGFRGDEGPIGHQGPIGQEGAPGRPGSPGLPGMPGRSVSIGYLLVKHSQTDQEPMCPVGMNKLWSGYSLLYFEGQEKAHNQDLGLAGSCLARFSTMPFLYCNPGDVCYYASRNDKSYWLSTTAPLPMMPVAEDEIKPYISRCSVCEAPAIAIAVHSQDVSIPHCPAGWRSLWIGYSFLMHTAAGDEGGGQSLVSPGSCLEDFRATPFIECNGGRGTCHYYANKYSFWLTTIPEQSFQGSPSADTLKAGLIRTHISRCQVCMKNL
modifications: here or on the partner: as printed: Gd^T-K(Gd^D)-K(Gd^D)-W-H-C-Y-T-Y-F-P-H-H-Y-C-V-Y-G; Gd^T = GdDTPA-thiourea, Gd^D = GdDOTAGA; cyclic through a disulfide between the two cysteines
